This is an account of results in publication PMC2833306.

The test addresses integrins on HS deficient CHO-2241 cells (Chinese hamster (endogenous in CHO-2241)). The test can be described thus: flow cytometry on cells; CHO-2241 cells (HS deficient) in PBS 1 mM CaCl2, 1 h at 4°C with 15 ug/mL particles; bound particles detected with rabbit serum against the Ad3 penton base and FITC secondary antibody. (In flow cytometry, cells or beads pass a laser one at a time.)

Substance “MutAQAS dodecahedron (HAd3 penton base, KQKR to AQAS) (from UniProt Q2Y0H9 1-544) (complex)” came in with an inhibition of binding compared to Bs-Dd of 80%.
